From US20160136231A1 (ROGNE BIOSCIENCE, published 2016)

T1: human ChemR23, cAMP Hunter cell line (human, UniProt Q99788 1-373)
T1 sequence (looked up): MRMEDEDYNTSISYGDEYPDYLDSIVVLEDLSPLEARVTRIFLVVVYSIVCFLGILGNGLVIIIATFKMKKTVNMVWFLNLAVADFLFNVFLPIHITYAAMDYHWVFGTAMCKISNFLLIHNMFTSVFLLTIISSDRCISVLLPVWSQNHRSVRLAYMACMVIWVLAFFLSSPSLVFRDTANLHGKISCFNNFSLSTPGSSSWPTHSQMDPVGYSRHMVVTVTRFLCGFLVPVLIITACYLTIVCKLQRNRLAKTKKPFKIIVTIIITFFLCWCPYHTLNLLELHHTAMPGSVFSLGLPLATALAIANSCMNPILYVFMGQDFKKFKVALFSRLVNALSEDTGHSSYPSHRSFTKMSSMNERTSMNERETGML

T2: mouse ChemR23, PathHunter β-Arrestin cell line (mouse, UniProt P97468 1-371)
T2 sequence (P97468 whole entry, looked up): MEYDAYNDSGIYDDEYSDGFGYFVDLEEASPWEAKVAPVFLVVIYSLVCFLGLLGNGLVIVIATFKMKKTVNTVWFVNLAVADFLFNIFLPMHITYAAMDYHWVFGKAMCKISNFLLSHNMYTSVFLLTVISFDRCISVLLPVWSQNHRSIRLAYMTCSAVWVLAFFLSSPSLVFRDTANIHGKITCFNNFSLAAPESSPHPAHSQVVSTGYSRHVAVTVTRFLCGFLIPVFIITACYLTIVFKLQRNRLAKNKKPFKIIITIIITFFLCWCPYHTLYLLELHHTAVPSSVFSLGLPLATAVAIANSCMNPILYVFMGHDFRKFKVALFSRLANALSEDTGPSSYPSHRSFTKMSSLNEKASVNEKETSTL

T3: GPR1, PathHunter β-Arrestin CHO cell line (human, UniProt P46091 1-355)
T3 sequence (P46091 whole entry, species assumed, looked up): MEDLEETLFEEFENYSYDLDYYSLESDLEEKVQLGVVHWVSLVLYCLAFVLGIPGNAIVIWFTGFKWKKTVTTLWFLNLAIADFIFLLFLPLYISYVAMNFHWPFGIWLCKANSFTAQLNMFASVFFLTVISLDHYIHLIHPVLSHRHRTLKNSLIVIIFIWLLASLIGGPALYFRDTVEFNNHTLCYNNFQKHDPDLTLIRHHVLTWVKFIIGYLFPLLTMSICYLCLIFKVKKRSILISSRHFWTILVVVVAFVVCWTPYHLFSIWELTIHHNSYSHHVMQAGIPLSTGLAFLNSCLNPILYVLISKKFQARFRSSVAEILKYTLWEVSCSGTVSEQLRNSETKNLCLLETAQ

B1: mouse chemerin C15 peptide (peptide)
peptide: AGEDPHGYFLPGQFA
B2: human chemerin C16 peptide (peptide)
peptide: AGEDPHSFYFPGQFAF
B3: human chemerin C17 peptide (peptide)
peptide: AGEDPHSFYFPGQFAFS
B4: human chemerin C15 peptide (peptide)
peptide: AGEDPHSFYFPGQFA

biological target: T1, human ChemR23, cAMP Hunter cell line; experiment: cell-based or functional assay

Binder | IC50, cAMP, Antagonist (RC50, uM)
B1 | > 10 µM
B2 | > 10 µM
B3 | > 10 µM
B4 | > 10 µM

biological target: T2, mouse ChemR23, PathHunter β-Arrestin …; experiment: cell-based or functional assay

Binder | EC50, Arrestin, Agonist (RC50, uM) | IC50, Arrestin, Antagonist (RC50, uM)
B1 | > 10 µM | > 10 µM
B2 | 0.0385 µM | > 10 µM
B3 | 0.84 µM | > 10 µM
B4 | > 10 µM | 9.66 µM

biological target: T3, GPR1, PathHunter β-Arrestin CHO cell …; experiment: cell-based or functional assay

Binder | % Max Activity, PathHunter β-Arrestin agonist | % Max Inhibition, PathHunter β-Arrestin antagonist against chemerin at EC80 | [EC50] (M), PathHunter β-Arrestin agonist | [IC50] (M), PathHunter β-Arrestin antagonist against chemerin at EC80
B1 | 27.8% | 0% | 3.7e-06 M | > 1e-05 M
B2 | 87.9% | 0% | 2.1e-09 M | > 1e-05 M
B3 | 80.9% | 0% | 1.5e-09 M | > 1e-05 M
B4 | 10.6% | 0% | 0.017 M | > 1e-05 M

biological target: human ChemR23 (CMKLR1), PathHunter β-Arrestin CHO cell line (human, UniProt Q99788 1-373); experiment: cell-based or functional assay

Binder | % Max Activity, PathHunter β-Arrestin agonist | % Max Inhibition, PathHunter β-Arrestin antagonist against chemerin at EC80 | [EC50] (M), PathHunter β-Arrestin agonist | [IC50] (M), PathHunter β-Arrestin antagonist against chemerin at EC80
B1 | 0.4% | 0% | > 1e-05 M | > 1e-05 M
B2 | 98.6% | 0% | 2.9e-08 M | > 1e-05 M
B3 | 67.5% | 0% | 4.8e-07 M | > 1e-05 M
B4 | 0.8% | 0% | > 1e-05 M | > 1e-05 M
